Test: yeast display, Sf9 membrane polyspecificity reagent, FACS + sequencing; frameworks hold sequencing errors
Method in brief: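 Nanobodies from a synthetic yeast display library (Saccharomyces cerevisiae BJ5465), induced 36–48 hours with galactose, were stained 1 hour at 4 °C with 10% biotinylated, detergent-solubilized Sf9 membrane reagent, enriched on streptavidin microbeads, then FACS-sorted. Anti-HA (expression) and streptavidin (reagent binding) fluorescence set low and high (top ~1%) gates. Polyreactivity labels come from the gate of origin. Genes were colony-PCR amplified, MiSeq 2 × 250 sequenced and filtered by CDR length.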

Sequence	polyreactivity (PSR sort gate)
QVQLVESGGGLVQAGGSLRLSCAASGRTFGIYAMGWYRQAPGKERELVAAITGRGGSTHYADSVKGRFTISRDNAKNTVYLQMNSLKPEDTAVYYCAADYRYNRGITSNKDYDYWGQGTQVTVSS	low polyreactivity
QVQLVESGGGLFQAGGSLRLSCAASGSTFWFNAMGWYRQAPGKERELVAAITSGDGTNYADSVKGRFTISRDNAKNTVYLQMNSLKPEVTAVYYCATVYADESGIEGYSWGQGTQVTVSS	low polyreactivity
QVQLVESVGGLVQAGASLRLSCAASGGTFPVYAMGWYRQAPGKEREMVAAISYSGVTTYYADSVKGRFTISRDNAKNTVYLQMNSLKPDDTAVYYCNADWRRWYIFSYDYWGQGTLVTVSS	low polyreactivity
QVQLVESGGGLVQAGGSLRLSCAASGLTFVKNAMGWNRQAPGKERELVAAITVSGSRTYYADSVKGRFTISRDNAKNTVYLQMNSLKPEDTGVYYCNAYPYYLVRNMDSWGQGTLVTVSS	high polyreactivity
QVQLVESGGGLVQAGGSLRLSCAASGRIFYFYAMGWSRQAPGKERELVAAITGSAGGTYYADSVKGRFTISRDTAKNTVYLQMNSLKPEDTAVYYCAAKYYGNKRDLYYWGQGTQVTVSS	low polyreactivity
QVQLVESGGGLVQAGGSLRLICAASGSTFAYNTMGWYRPAPGKERELVAAISWRGTRTYYADSVKGRFTISRDNAKNTVYLQMNSLKPEDTAVYYCATKYGISYDYWGLGTQVTVSS	high polyreactivity
QVQLVESGGGLVQEGGSLRLSCAASGLIVGQNAMGWYRQAPGKDRELVAAISQRGGTYYADSVKGRFTISRDNAKNTVYLQMNSLKPEDTAVLYCAARVGLQPGRYYLRYDYWGQGTQVTVSS	low polyreactivity
QVQLVESGGGLVQAGGSLRLSCAASGFIFVRYAMGWYRQAPGKERELVAAISWRGGSTYFADSVKGRFTISRDNAKNTVYLQMNSLKPEDTAVYYCAAVTWVHRYSRFNPFVAFDYWGQGTQVTVSS	high polyreactivity
QVQLVESGGGLVQAGGSLRLSCAASGSTVFGNAMGWYRQAPGKERELVAAITSGGSTNYADSVKGRFTISRDNAKNTVYLQMNSLKPEDTAVYYCAKPSRWGWTGFYAYDYWGQGTQVTVSS	low polyreactivity
QVQLVESGGGLVQAGGSLRLSCAASASIFYRYAMGWFRQAPGKERELVAAISWRVTSTYYADSVKGRFTISRDNSKNTVYLQMNSLKPEDTAVYYCATAGTYTGGEGYWGQGTQVTVSS	high polyreactivity
QVQLVESGGGLVQAGGSLRLSCAASGIIFGSYTMGWYIQAPGKERELVATISFSGGTTNYADSVKGRFTISRDNAKNTVYLQMNSLKPEDTAVYYCAARPAPATGKLDYWGQGTQVTVSS	low polyreactivity
QVQLVESGGGLVQAGGSLRLSCAASGRTFDEYPMGWYRQAPGKERELVAAISTRGGSTYYADSVKGRFSISRDNAKNTVYLQMNSLKPEDTAVYYCAKAYYPYRYFSVYSDLESWGQGTQVTVSS	high polyreactivity
QVQLVESGGGLVQAGGSLRLSCAASGFTIRRNAMGWYRQAPGKERELVAAISDRGGSTYYADSVKGRFTISRDTAKNTVYFQMTSLKPEDTAVYYCAAEPYAGPELDYWGQGTQVTVSS	high polyreactivity
QVQLVESGGGLVQAGGSLRLSCAASGFIFVRYAMGWYRQAPGKERELVAAITRSGTSTYYADSVKGRFTISRDNAKTTVNLQMNSLKPEDTAVYYCAKEVRSRYGYWGQGTQVTVSS	high polyreactivity
QVQLVESGGGLVQAGGSLRLSCAASGRTFVTNAMGWYRQAPGKERELVAAISKSGGRTYYADSVKGRFTISRDNAKNTVYLQMNRLKPEDTAVYYCAADKRYLSYDYWGQGTQVTVSS	high polyreactivity
QVQLVESGGGLVQAGGSLRLSCAASGSIFLRIAMGWYRQAPGKERELVARIRGGGSTYYADSVKGRFTISRDNAKNTVYLQMNSLKPEDTAVYYCAKDYYKYADGYDYWGQGTQVTVSS	high polyreactivity
QVQLVESGGGLVQAGGSLRLSCAASGRISSGYAMGWYRQAPGKERELVAAISSIGGRTYYADSVKGRFTISRDNAKNTVYLQMNSLKPEDTAVYYCNTYPYIQRTWWYDYWGQGTQVTVSS	high polyreactivity
QVQLVESGGGLVQAGGSLRLSCAASGITFYRYFMGWYRPAPGKERELVAAISRGGGSTYYADSVKGRFTISRDNAKNTVYLQMNSLKPEDTAVYYCNARYLYRHDYWGQGTQVTVSS	high polyreactivity
QVQLVESGGGLVQAGGSLRLSCAASGSTFARYAMGWYRPAPGKERELVAVIRSGGSTNYADSVKGRFTISRDNAKNTVYLQMNSLKPEDTAGAADQWTIHRWATYGYWGQGTQVTVSS	low polyreactivity
PVQLVESGGGLVQAGGSLRLSCAASGSIFAVNALGWSRQAPGKERELVAAITSGGNTYYADSVKGRFTISRDNAKNTVYLQMNSLKPEDTAVYDCATVFSVQGWYFGMNYWGQGTQVTVSS	low polyreactivity
QVQLVESGGGLVQAGGSLRLSCAASGSTFGLNVMGWYRQAPGKEREFVAGISRSGGRTYYADSVKGRFTISRDNAKNTVYLQMNSLKPEDTAVYYRAADYWTGITPDAIGDYWGQGTQVTVSS	low polyreactivity
QVQLVESGGGLVQAGGSLRLSCAASGRTFYRNAMGWYRQAPGKERELVAAITWSGVSTYYADSVKGRFTISRDNAKNTVYVQMNSQKPEDTAVYYCARGRVLRNGHYFQLRNYDYWGQGTQVTVSS	high polyreactivity

Sequence	polyreactivity (PSR sort gate)
QVQLVESGGGLVQAGGSLRLSCAASGSTFGRNVIGWYRQAPGKERELVAAISIRGGSTYYADSVKGRFTISRDIAKNTVYLQMNSLKPEDTAVYYCALDYPTDAYDYWGQGTQVTVSS	low polyreactivity
QVQLVESGGGLVQAGGSLRLSCAASGIIFAGNAMGWYRQEPGKERELVAAISSGTTTNYADSVKGRFTISRDNAKNTVYLQMNSLKPEDTAVYYCAADDFPYKSDYWGQGTQVTVSS	low polyreactivity
QVQLVESGGGLVQAGGSLRLSCGASGRTFYRYDMGWYRQAPGKERELVASITSGGNTNYADSVKGRFTISRDNAKNTVYLQMNSLKPEDTAVYYCAKEWYRVQHYRLITEFDYWGQGTQVTVSS	high polyreactivity
QVQLVESGGGLVQAGGSLRLSCAASGSTYTNAMGWYRQAPGKERELVAAITWSGGTTYYADSVKGRFTISLDNAKNTVYLPMNSLKPEDTAVYYCAAEYRWYSWGQGTQVSVSS	high polyreactivity
QDQLVESGGGIVQEGGILRLSCAASGRIFVGYAMGWYRQAPGKERELVAAIRRYGTGTYYADSVKGRFTISRDNAKYTVYLKLNSLKTEDTAVYYCDAPELALYFPYDYWGQGTQVTVSS	low polyreactivity
QVQLVESGGGLVQAGGSLRLSCAASGRTFTPNAMGWYRQAPGKERELVAAITSTGGRTYYADSVKGRFTISRDNAKNTVYLQMNSLKPEDTAVYYCAVSYRYLRKYGYWGQGTQVTVSS	high polyreactivity
QVQLVESGGGLVQAGGRLRLSCAASGSIFIYYAMGWYRQAPGKERELVAAISNGGSTNYADSVKGRFTISRDNAKNTVYLQMNSLKPEDTAVYYCNTDWGYFHGVRAYLGYGYWGQGTQVTVSS	low polyreactivity
QVQLVESGGGLVQAGGSLRLSCAASGSTFESNAMGWYRQAPGKERELVAAISSSGGSTYYADSVKGRFTISRDNAKNTVYLQMNSLKPEDTAVYYCNKGGLSDYDYWGQGTQVTVSS	high polyreactivity
QVQLVESGGGLVQAGGSIRLSCAASGSTFRLYARGWYRQAPGKEREFVAAISFRGGSTYYADSVKGRFTISRDYSKNTVYLQMNSLKPEDTAVYYCNADYYYYYSWFNYWGQGTQVTVSS	high polyreactivity
QDQLVESGGGLVQAGGSLRLSCAASGSIFVENAMGWYRQAPGKEREFVAAITRSGGSTYYADSVKGRFTISRDNAKNPVYLQMNSMKPEDTAVYYCAARIWDEQPAAGYYWGQGTQVTVSS	low polyreactivity
QVQLVESGGGLVQAGGSLRLSCAASGSTFVYYAMGWYRQAPGKEREFVAAINGGGRTNYADSVKGRFTISRDNAKNTVYLQMNSLKPEDTAVYDCAADGLSNVRQMDYWGQGTQVTVSS	low polyreactivity
QVQLVESGGGLVQAGGSLRLSCAASGITFYRYVMGWYRQAPGKERELVAAITTGDSTYYADSVKGRFTISRDNAKNTVYLLMNSLKPEDTAVYYCAAVYYSALANYDYWGQGTQVTVSS	low polyreactivity
QVQLVESGGGLVQAGGSLRLSCAASGRIFYVYGMGWYRQAPGKERELVGAISKRGDNTYYADSVKGRFTISRDNAKNTVYLQMNSLNPEDTAVYYCNVKRYGGRSDYWGQGTQVTVSS	high polyreactivity
QVQLVESGGGLVQAGGSLRLSCAASGGIFSGYAMGWYRQAPGKARELVAAISRRGTRTYYADSVKGRFTISRDNAKNTVDLQKNSLTPEDTAVYYCNAELDSLGTYDYWGQGTQVTVSS	high polyreactivity
QVQLVESGGGLVQAGGSLRLSCAASGRIFYSYAMGWYRQAPGKERELVAAITRGGSTSYADSVKGRFTISRDNAKNTVYLQMNSLKPEDTAVYYCATRQFYSYWKYYYWGQGTQVTVSS	high polyreactivity
QVQLVETGGGLVQAGGSLRLSCAASGRTFDGNVMGWYRQEPGKERELGAAISDRGTRTYYADSVKGRFTISRDNAKNTVYLQMNSLKPEDTAVYYCATRVYFSPYRYDYWGQGTQGTVSS	high polyreactivity
QVQLVESGGGLVQAGGSLRLSCAASGIISVRNTMGWYRQAPGKERELVAAISGSGGSTHYADSVKGRFTISRDNAKNTVYLQMNSLKTEDTEVYYCAVRSYGYWHFGYWGQGTQVTVSS	high polyreactivity
QVQLVESGGGLVQAGGSLRLSCAASGRIFTRYAMGWYRQATGKERELVAAISSGGGNTYYADSVKGRFTISRDNAKNTVYLQMNSLKPEDTAVYYCAALRSWRKTGGAQRYWYDYWGQGTQVTVSS	high polyreactivity
QVQLVESGGGLVQAGGSLRLSCAASGRTFPGNAMGWYRQATGKERELVATISSGGTTNYADSVKGRFTISRDNAKNTVYLQMNSLKPEDTAVYYCATDTYHHKADYEYWGQGTQVTVSS	low polyreactivity
QVQLVESGGGLVQAGGSLRLSCAASGFTFGSYAMGWYRQAPGTERELVAAISCSGGSTYYADSVKGRFTISRDNAKNTVYLQMNSLKPEDTAVYYCAVRYPLYRMDYWGQGTQVTVSS	high polyreactivity
QVQLVESGGGLVQAGGSLRLSCAASGRIIGLYALGWYRQATGKERELVAAISSAGSTYYADSVKGRFTISRDNAKNTVYLQMNSLKPEDTAVYYCAKSRYRGYDYWGQGTQVTVSS	low polyreactivity

— the nanobody polyreactivity screen of Harvey et al. (2022)
